Consider six compounds from publication PMC3218020, “Subtype Differences in Pre-Coupling of Muscarinic Acetylcholine Receptors” (PLoS ONE, 2011).

In assay [1] the target is T1, M2 muscarinic acetylcholine receptor (Homo sapiens, UniProt P08172).
T1 construct: gene CHRM2; full-length receptor stably expressed in CHO cells, crude membranes
T1 sequence (P08172 1-466): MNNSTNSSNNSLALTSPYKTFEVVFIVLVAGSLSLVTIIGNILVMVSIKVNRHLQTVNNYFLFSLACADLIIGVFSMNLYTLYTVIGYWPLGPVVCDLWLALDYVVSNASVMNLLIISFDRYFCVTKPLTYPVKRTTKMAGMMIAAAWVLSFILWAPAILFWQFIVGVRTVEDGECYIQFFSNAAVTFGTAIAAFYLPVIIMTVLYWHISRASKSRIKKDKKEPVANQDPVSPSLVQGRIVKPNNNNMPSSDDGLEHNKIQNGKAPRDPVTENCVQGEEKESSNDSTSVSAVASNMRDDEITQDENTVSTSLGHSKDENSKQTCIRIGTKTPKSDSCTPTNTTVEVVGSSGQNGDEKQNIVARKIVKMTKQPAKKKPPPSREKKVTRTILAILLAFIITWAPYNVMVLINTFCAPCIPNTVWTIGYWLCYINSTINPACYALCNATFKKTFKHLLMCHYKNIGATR
Kind of assay: radioligand binding, CHO membranes. As to conditions: labelled compound; antagonist; […] °C, pH […].

In assay [2] the target is Gi/o G-proteins (Chinese hamster (endogenous in CHO)).
For assay [3], the target named is G_(s/olf) G-proteins (Chinese hamster (endogenous in CHO)).
Assay [4] concerns the target G_(q/11) G-proteins (Chinese hamster (endogenous in CHO)).
In assay [5] the target is G-proteins (Chinese hamster (endogenous in CHO)).

Turning to `C[N+]1(C)[C@@H]2C[C@@H](OC(=O)[C@H](CO)c3ccccc3)C[C@H]1[C@@H]1O[C@@H]12` [[3H]-N-methylscopolamine], the “radioligand binding, CHO membranes” value in assay [1] was “N-methylscopolamine binding was measured directly in saturation experiments using six concentrations”.

With “human M1 muscarinic acetylcholine receptor (from UniProt P11229 1-460)”, the EMAX of carbachol-stimulated [35S]GTPγS binding to Gi/o G-proteins via the receptor (scintillation proximity assay, CHO membranes, carbachol 0.1 µM to 1 mM) (fold increase of basal binding) in assay [2] is 2.01. The compound further registered an EMAX of carbachol-stimulated [35S]GTPγS binding to G (s/olf) G-proteins via the receptor (scintillation proximity assay, CHO membranes, carbachol 0.1 µM to 1 mM) (fold increase of basal binding) in assay [3] of 1.92. Besides, the EMAX of carbachol-stimulated [35S]GTPγS binding to G (q/11) G-proteins via the receptor (scintillation proximity assay, CHO membranes, carbachol 0.1 µM to 1 mM) (fold increase of basal binding) in assay [4] was found to be 3.9.

Turning to “human M2 muscarinic acetylcholine receptor (from UniProt P08172 1-466)”, the EMAX of carbachol-stimulated [35S]GTPγS binding to Gi/o G-proteins via the receptor (scintillation proximity assay, CHO membranes, carbachol 0.1 µM to 1 mM) (fold increase of basal binding) in assay [2] was 3.44. In addition, the EMAX of carbachol-stimulated [35S]GTPγS binding to G (s/olf) G-proteins via the receptor (scintillation proximity assay, CHO membranes, carbachol 0.1 µM to 1 mM) (fold increase of basal binding) in assay [3] amounted to 1.93. In addition, in assay [4], the EMAX of carbachol-stimulated [35S]GTPγS binding to G (q/11) G-proteins via the receptor (scintillation proximity assay, CHO membranes, carbachol 0.1 µM to 1 mM) (fold increase of basal binding) worked out at 1.63.

As to “human M3 muscarinic acetylcholine receptor (from UniProt P20309 1-590)”, the EMAX of carbachol-stimulated [35S]GTPγS binding to Gi/o G-proteins via the receptor (scintillation proximity assay, CHO membranes, carbachol 0.1 µM to 1 mM) (fold increase of basal binding) in assay [2] is 2.16. In assay [3], the EMAX of carbachol-stimulated [35S]GTPγS binding to G (s/olf) G-proteins via the receptor (scintillation proximity assay, CHO membranes, carbachol 0.1 µM to 1 mM) (fold increase of basal binding) came out at 2.16. The same compound returned an EMAX of carbachol-stimulated [35S]GTPγS binding to G (q/11) G-proteins via the receptor (scintillation proximity assay, CHO membranes, carbachol 0.1 µM to 1 mM) (fold increase of basal binding) in assay [4] of 3.31.

In assay [2], “human M4 muscarinic acetylcholine receptor (from UniProt P08173 1-479)” came in with an EMAX of carbachol-stimulated [35S]GTPγS binding to Gi/o G-proteins via the receptor (scintillation proximity assay, CHO membranes, carbachol 0.1 µM to 1 mM) (fold increase of basal binding) of 3.15. In addition, the EMAX of carbachol-stimulated [35S]GTPγS binding to G (s/olf) G-proteins via the receptor (scintillation proximity assay, CHO membranes, carbachol 0.1 µM to 1 mM) (fold increase of basal binding) in assay [3] is 2.18. Also, the EMAX of carbachol-stimulated [35S]GTPγS binding to G (q/11) G-proteins via the receptor (scintillation proximity assay, CHO membranes, carbachol 0.1 µM to 1 mM) (fold increase of basal binding) in assay [4] is 1.59.

As to “wild-type human M1 muscarinic receptor (newly prepared CHO cell line) (from UniProt P11229 1-460)”, the fraction of low-affinity sites (f low) for carbachol in competition with 1 nM [3H]NMS, membranes of the newly prepared CHO cell line in assay [5] was determined as 72 percent.
